The values below come from patent US20130177981A1 (WISCONSIN ALUMNI RESEARCH FOUNDATION, published 2013).

For assay [1], the target named is T1, gp41-5 (HIV).
T1 construct: also called gp41-5 protein construct; five-helix bundle protein
The assay is described as follows: competition FP; displacement of Flu-C38 from gp41-5.

For assay [2], the target named is T1, gp41-5. The description is as above. This is another data set of the same source.

Like-named read-outs stand apart in the source and are kept apart here. [ ]: non-standard residue; d: D form. APC = trans-3-aminopyrrolidine-4-carboxylic acid; ACPC = trans-2-aminocyclopentanecarboxylic acid; β3hT = C[C@@H](O)[C@H](N)CC(=O)O; β3hE = N[C@@H](CCC(=O)O)CC(=O)O

B1: chimeric CHR α/β-peptide 8 (peptide)
peptide: Ac-TTWEAWDRAIAEYA[ACPC]RIE[ACPC]LI[APC]AAQ[β3hE]QQ[β3hE]KNE[ACPC]AL[APC]EL-NH2
modifications: not fully specified
notes: Made from 7 by replacing two β3-hArg residues with APC
B1 gave a Ki with gp41-5 [1] of 0.3 nM. That is a sub-nanomolar value.

For the molecule Ac-[β3hT]TWE[ACPC]WD[APC]AIA[β3hE]YAARIEALIRAAQ[β3hE]QQ[β3hE]KNE[ACPC]AL[APC]EL-NH2 (not fully specified, also called compound 14) [chimeric α+α/β foldamer 14], in the assay with gp41-5 [2], affinity was put at a Ki of 1.4 nM.

As for Ac-TTWEAWD[APC]AIA[β3hE]YA[ACPC]RIE[ACPC]LI[APC]AAQ[β3hE]QQ[β3hE]KNE[ACPC]AL[APC]EL-NH2 (not fully specified, also called compound 12; peptide 12) [chimeric α+α/β foldamer 12], the Ki in the assay with gp41-5 [2] was 8 nM.

In the assay with gp41-5 [2], Ac-[β3hT]TWE[ACPC]WD[APC]AIA[β3hE]YA[ACPC]RIE[ACPC]LI[APC]AAQEQQEKNEAALREL-NH2 (not fully specified, also called compound 15) [chimeric α+α/β foldamer 15] displayed a Ki of 0.2 nM.

B2: chimeric α+α/β foldamer 13 (peptide)
peptide: Ac-TTWEAWDRAIA[β3hE]YA[ACPC]RIE[ACPC]LI[APC]AAQ[β3hE]QQ[β3hE]KNE[ACPC]AL[APC]EL-NH2
modifications: not fully specified
notes: the difference must lie in β3-residues whose bold type is lost; also called compound 13; peptide 13
Molecule B2 registered a Ki with gp41-5 [2] of 0.8 nM.
